Results on 6 molecules are retold here after US20020192214A1 (published 2002).

T1: human eosinophil eotaxin receptor CC CKR3, stably expressed in AML14.3D10 cells (human, UniProt P51677 1-355)
T1 sequence: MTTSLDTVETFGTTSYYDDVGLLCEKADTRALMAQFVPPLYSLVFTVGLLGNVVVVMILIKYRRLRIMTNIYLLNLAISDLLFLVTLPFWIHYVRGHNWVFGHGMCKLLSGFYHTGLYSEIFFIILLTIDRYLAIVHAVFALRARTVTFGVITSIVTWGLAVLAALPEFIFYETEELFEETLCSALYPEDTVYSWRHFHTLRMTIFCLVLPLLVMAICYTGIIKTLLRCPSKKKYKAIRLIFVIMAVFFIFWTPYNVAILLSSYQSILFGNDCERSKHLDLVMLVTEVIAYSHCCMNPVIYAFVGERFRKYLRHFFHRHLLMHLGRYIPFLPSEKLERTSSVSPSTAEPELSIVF

T2: endogenous eosinophil eotaxin receptor (CC CKR3) on primary human eosinophils (human, UniProt P51677 1-355)
T2 construct: The target as printed is 'eosinophils' (primary cells from allergic and asthmatic donors); It also says eosinophils express a much lower level of CC CKR1; also called primary eosinophils
T2 sequence: T1 sequence

B1: MIP-1β (ligand, UniProt P13236 24-92, looked up)
chain: APMGSDPPTACCFSYTARKLPRNFVVDYYETSSLCSQPAVVFQTKRSKQVCADPSESWVQEYVYDLELN
notes: also called macrophage inflammatory protein 1β
B2: MIP-1α (ligand, UniProt P10147 24-92, looked up)
chain: SLAADTPTACCFSYTSRQIPQNFIADYFETSSQCSKPGVIFLTKRSRQVCADPSEEWVQKYVSDLELSA
notes: also called macrophage inflammatory protein 1α
B3: human eotaxin (ligand)
chain: not shown
B4: RANTES (ligand, UniProt P13501 24-91, looked up)
chain: SPYSSDTTPCCFAYIARPLPRAHIKEYFYTSGKCSNPAVVFVTRKNRQVCANPEKKWVREYINSLEMS
B5: MCP-3 (ligand)
chain: not shown
B6: murine eotaxin (ligand, UniProt P48298 24-97, looked up)
chain: HPGSIPTSCCFIMTSKKIPNTLLKSYKRITNNRCTLKAIVFKTRLGKEICADPKKKWVQDATKHLDQKLQTPKP

Where only a bound is given, the exact number is not on record here.

The first assay concerns the target T1, human eosinophil eotaxin receptor CC …. The assay is described as follows: cell-based or functional assay.
For the molecule B1, the “Ca^2+-flux (intracellular Ca^2+ levels)” value is more than 1 µM.
Still for that read-out and setting: to B2 belongs more than 1 µM.

In a further assay the target is T2, endogenous eosinophil eotaxin receptor …. The assay is described as follows: competition against 125I-MCP-3, primary eosinophils. As for the experimental part:
(§1) To provide additional pharmacological evidence, binding studies were conducted on primary eosinophils. […] The number of binding sites varied by less than 2-fold for the 3 donors used in the studies. […] Similarly, the Kd's obtained by competition against ¹²⁵I-MCP-3 on eosinophils are effectively indistinguishable to those measured against cloned CC CKR3 (see Table 1). All of the observations and measurements, taken together with the Western blot showing expression of CC CKR3, verify that CC CKR3 is the eosinophil eotaxin receptor, and appears to be largely responsible for mediating the effects of most β-chemokines on eosinophils.
(§2) Competition binding experiments were carried out against the indicated iodinated ligand as follows and as described herein. Equilibrium binding of β-chemokines to AML14.3D10 cells expressing CC CKR3 and to primary eosinophils was examined with increasing concentrations of unlabelled human eotaxin, murine eotaxin, RANTES, MCP-3, or MCP-1 to compete against fixed concentrations of either ¹²⁵I-human eotaxin, or ¹²⁵I-MCP-3. Also the competition with 100 nM concentrations of MIP-1α, and MIP-1β was examined. The experiments were carried out either with AML14.3D10 cells expressing CC CKR3, or with eosinophils. All values are the averages of triplicate determinations. Typically, 4000-6000 cpm of iodinated ligand was bound in the absence of compeititor with S/N ratios exceeding 15. Human and murine eotaxin are the human and murine chemokines, respectively. “N.B.” means that no competition was observed. All results are the averages of the number of experiments shown in parenthesis.
Regarding B3, the Kd worked out at 0.2 nM.
Regarding B4, the Kd was 0.9 nM.
On the same count and under the same terms, the figure for B5 is 1.1 nM.
On the same count and under the same terms, to B6 belongs 0.2 nM.

A further assay shares this target. The assay is described as follows: competition against 125I-human eotaxin, primary eosinophils. The protocol: as §1, §2
B3: the Kd was 0.1 nM.
On the same count and under the same terms, the figure for B4 is 2.6 nM; for B5 it is 3 nM.
In the case of B6, the Kd came out at 0.1 nM.

The target is the same in another assay. The assay is described as follows: competition against 125I-human eotaxin on primary eosinophils. As for the experimental part:
as §1
Competition binding experiments were carried out against the indicated iodinated ligand as follows and as described herein. Equilibrium binding of β-chemokines to AML14.3D10 cells expressing CC CKR3 and to primary eosinophils was examined with increasing concentrations of unlabelled human eotaxin, murine eotaxin, RANTES, MCP-3, or MCP-1 to compete against fixed concentrations of either ¹²⁵I-human eotaxin, or ¹²⁵I-MCP-3. Also the competition with 100 nM concentrations of MIP-1α, and MIP-1β was examined. The experiments were carried out either with AML14.3D10 cells expressing CC CKR3, or with eosinophils. All values are the averages of triplicate determinations. […]
For B1, the binding result was “no binding (tested: 100 nM)”.
Consider B2, for which the binding result is on record as “no binding (tested: 100 nM)”.

The next assay concerns the target T1, human eosinophil eotaxin receptor CC …. The assay is described as follows: competition against 125I-MCP-3, intact AML14.3D10 cells expressing CC CKR3. As for the experimental part:
Competition studies were also carried out against ¹²⁵I-MCP-3. […] Thus despite some small quantitative differences the overall ligand selectivity of the receptor is the same whether measured by competition against eotaxin or MCP-3, and the order of potency, eotaxin>MCP-3=RANTES>>MCP-1, is identical.
as §2
On to B3, for which the Kd turned out to be 0.2 nM.
The same measure, in the same setting: the figure for B4 is 0.5 nM; for B5 it is 0.7 nM; for B6 it is 0.3 nM.

A further assay shares this target. The assay is described as follows: competition against 125I-human eotaxin on AML14.3D10 cells expressing CC CKR3. The protocol: (§3) Results with murine eotaxin were essentially identical. […] Clearly, CC CKR3 is a high affinity receptor for eotaxin.
as §2
In the case of B1, the binding result is given as “no binding (tested: 100 nM)”.
For B2, the binding result is recorded as “no binding (tested: 100 nM)”.

For another assay the target is unchanged. The assay is described as follows: competition against 125I-human eotaxin, intact AML14.3D10 cells expressing CC CKR3. The protocol:
as §3, §2
For B3, the Kd was 0.1 nM.
On the same count and under the same terms, to B4 belongs 3.1 nM; to B5, 2.7 nM; to B6, 0.1 nM.
